Usually Kd stands for the equilibrium constant for the complex coming apart. A lower Kd goes with tighter binding.

Data set [1] has as its target ORF1p WT (111p) (UniProt Q9UN81). Description: optical tweezers (koff/kon). Conditions: 30 pN tension, 1 nM ORF1p; Binding buffer with 50 mM Na+ (pH and other components not in the material), 21 C (stated for m128p); 8.1 knt ssDNA held at 5-50 pN.
In data set [2] the target is m128p (CTD, RRM, 3.5 of 14 CC heptads) (UniProt Q9UN81). Description: optical tweezers (koff/kon). Conditions: Binding buffer with 50 mM Na+ (pH and other components not in the material), 21 C (stated for m128p); 8.1 knt ssDNA held at 5-50 pN.
The target in data set [3] is ORF1p WT (111p) (UniProt Q9UN81). Description: optical tweezers. Conditions: 30 pN; K* = compact and de-compact states equally occupied, not a simple Kd; Binding buffer with 50 mM Na+ (pH and other components not in the material), 21 C (stated for m128p); 8.1 knt ssDNA held at 5-50 pN.
In data set [4] the target is ORF1p WT (111p) (UniProt Q9UN81 1-338). Put plainly: confocal fluorescence with optical tweezers; 30 nM ORF1p bound to tethered 8.1 knt ssDNA (ternary complex), 10 and 30 pN; Binding buffer with 50 mM Na+ (pH and other components not in the material), 21 C (stated for m128p); 8.1 knt ssDNA held at 5-50 pN. Conditions: protein: recombinant; tags: N-terminal His; chain copies: 3; label: 5' Alexa488; single strand.
ORF1p WT (111p) (UniProt Q9UN81 1-338), sequence (Q9UN81 whole entry): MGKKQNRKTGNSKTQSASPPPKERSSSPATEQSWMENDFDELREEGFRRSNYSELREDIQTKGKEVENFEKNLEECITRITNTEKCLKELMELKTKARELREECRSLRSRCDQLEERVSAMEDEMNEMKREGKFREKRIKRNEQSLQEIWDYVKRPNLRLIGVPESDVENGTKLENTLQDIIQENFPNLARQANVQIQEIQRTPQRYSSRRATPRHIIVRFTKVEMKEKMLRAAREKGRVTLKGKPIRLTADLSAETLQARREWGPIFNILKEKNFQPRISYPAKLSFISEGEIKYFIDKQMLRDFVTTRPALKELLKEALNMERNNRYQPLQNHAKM

ORF1p WT (111p) (UniProt Q9UN81), sequence (Q9UN81 whole entry): as above
m128p (CTD, RRM, 3.5 of 14 CC heptads), sequence (Q9UN81 128-338): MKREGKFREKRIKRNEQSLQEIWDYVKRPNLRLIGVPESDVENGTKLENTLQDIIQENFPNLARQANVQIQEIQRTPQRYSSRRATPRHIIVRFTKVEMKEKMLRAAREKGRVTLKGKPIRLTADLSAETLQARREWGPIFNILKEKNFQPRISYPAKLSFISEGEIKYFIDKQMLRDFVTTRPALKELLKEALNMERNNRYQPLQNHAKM

Take 8.1 knt ssDNA: the Kd with ORF1p WT (111p) [1] came out at 0.17 nM; in data set [2] it was 1.6 nM. The same molecule returned a K half in the data set with ORF1p WT (111p) [3] of 2.8 nM.

In the case of TTTTTTTTTTTTTTTTTTTT (ssDNA) [Alexa488-dT20], the binding result with ORF1p WT (111p) [4] was “binds”.
